1 molecule from PMC7347935, “STK11 (LKB1) missense somatic mutant isoforms promote tumor growth, motility and inflammation” (Communications Biology, 2020) can be followed below.

The target of this test is T1, LKB1^Y49D (human, UniProt Q15831 1-433, Y49D).
T1 sequence (looked up): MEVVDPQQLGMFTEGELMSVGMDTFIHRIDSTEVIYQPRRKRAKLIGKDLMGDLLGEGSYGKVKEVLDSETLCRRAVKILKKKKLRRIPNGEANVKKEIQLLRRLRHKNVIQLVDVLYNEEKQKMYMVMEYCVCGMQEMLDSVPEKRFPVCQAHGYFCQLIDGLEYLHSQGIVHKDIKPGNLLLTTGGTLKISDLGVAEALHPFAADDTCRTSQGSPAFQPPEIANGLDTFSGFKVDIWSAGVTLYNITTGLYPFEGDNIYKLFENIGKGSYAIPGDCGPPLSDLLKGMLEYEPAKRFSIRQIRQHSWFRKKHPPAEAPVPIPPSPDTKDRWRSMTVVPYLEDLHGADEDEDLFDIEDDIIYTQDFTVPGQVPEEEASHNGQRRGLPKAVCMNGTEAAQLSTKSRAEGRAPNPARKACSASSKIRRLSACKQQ
Nature of the test: cell-based or functional assay.

B1: STRADα (natural protein, human (endogenous in A549 and G361), UniProt Q7RTN6 1-431, looked up)
chain: MSFLVSKPERIRRWVSEKFIVEGLRDLELFGEQPPGDTRRKTNDASSESIASFSKQEVMSSFLPEGGCYELLTVIGKGFEDLMTVNLARYKPTGEYVTVRRINLEACSNEMVTFLQGELHVSKLFNHPNIVPYRATFIADNELWVVTSFMAYGSAKDLICTHFMDGMNELAIAYILQGVLKALDYIHHMGYVHRSVKASHILISVDGKVYLSGLRSNLSMISHGQRQRVVHDFPKYSVKVLPWLSPEVLQQNLQGYDAKSDIYSVGITACELANGHVPFKDMPATQMLLEKLNGTVPCLLDTSTIPAEELTMSPSRSVANSGLSDSLTTSTPRPSNGDSPSHPYHRTFSPHFHHFVEQCLQRNPDARPSASTLLNHSFFKQIKRRASEALPELLRPVTPITNFEGSQSQDHSGIFGLVTNLEELEVDDWEF
For the molecule B1, the “specific in vitro kinase activity towards NUAKtide peptide in the presence of STRADα, relative to LKB1^WT” value is ~30 % of LKB1^WT activity.
